Measured values from US20250152743A1, “SYNPOPTOSIS CIRCUITS FOR PROGRAMMABLE CELL DEATH CONTROL” (California Institute of Technology, priority 2023, published 2025).
Read-outs that look alike come from different tables or passages of the source.

System: HEK cells
Assay: Transient DNA transfection of HEK cells, Annexin/Sytox staining, flow cytometry
Format: cell-based, human
Details: for pyroptosis, Sytox staining: with TEVP / cognate protease
Protocol: HEK cells were transiently co-transfected with DNA encoding the circuits, often along with Cherry, a fluorescent protein marker, and cells were analyzed by flow cytometry 16 to 24 hours later. To quantify cell death, the cells were strained with Annexin, Sytox, or both. Annexin stains apoptotic cells by binding to phosphatidylserine exposed on the outer leaflet, and pyroptotic cells by binding to phosphatidylserine in the inner leaflet after membrane permeabilization. In contrast, Sytox, a membrane-impermeable dye, primarily stains pyroptotic cells. Therefore, apoptotic cells are typically Annexin-high and Sytox-low, while pyroptotic cells are Annexin-high and Sytox-high (FIG. 7B). For simplicity, in experiments involving only a single death mode, a single relevant dye was often used. To focus on cells influenced by the circuits, the fraction of Annexin- or Sytox-positive cells was calculated after gating on the fluorescent co-transfection marker (FIG. 7C).
On the day before transfection, HEK cells were seeded at a density of 0.3-0.6 million cells per well on a 12-well plate, 0.1-0.3 million cells per well on a 24-well plate, or 15,000-50,000 cells per well on a 96-well plate. The cells were allowed to attach to the plate overnight, for at least 8 hours. On the day of transfection, we treated the cells with purified DNA plasmids encoding circuit components. In addition to plasmids encoding circuit components, we often included a plasmid encoding a fluorescent co-transfection marker, at roughly 50 ng DNA per well on a 24-well plate. Given the different number of molecular components in each synthetic circuit and their various relative ratios, the total amount of DNA ranged from 50 to 1 μg per well on a 24-well plate, and was scaled by […] when other 12-well or 96-well plates were used, respectively. On the same plate, we often equalized the total amount of DNA across all transfected wells, using a filler plasmid encoding the neomycin resistance gene. To transfect cells with plasmid DNA, we used three types of transfection reagents—Lipofectamine 2000 (Thermo Fisher), Lipofectamine 3000 (Thermo Fisher), and FuGENE HD (Promega), according to manufacturers' instructions. Briefly, for a typical transfection experiment on a 24-well plate, we mixed plasmids and the transfection reagent, around 200 ng of DNA per 1 μl of Lipofectamine 2000, in 25 μl of Opti-MEM reduced serum medium (Thermo Fisher), incubated the mixture for 5-10 min at room temperature, and then added another 25 μl of Opti-MEM before transferring the mixture dropwise to culture wells. We also performed some transfection experiments using the Lipofectamine 3000 kit (Thermo Fisher), at a ratio of 2,000 ng of DNA, 2 ul of 4 ul of P3000, and 3 μl of Lipofectamine 3000. We similarly diluted the mixture in Opti-MEM before adding it to cells. For transfection with FuGENE, we used a ratio of 4 μl FuGENE:1 μg of DNA, and incubated the DNA-FuGENE mixture at room temperature for 5 min before transfection. To enable protein expression from plasmids with a doxycycline-inducible promoter, doxycycline was added to the cell culture at a final concentration of 100 ng/mL. In experiments involving Q-VD-OPh, the compound was added to the cell culture at a final concentration of 30 μM, immediately after the cells received the transfection mixture. To transfect cells with in vitro transcribed mRNA, Lipofectamine MessengerMax (Thermo Fisher) was used. Briefly, for transfection of one well in a 96-well plate, 0.1 μL of Lipofectamine MessengerMAX was diluted in 1.25 μL Opti-MEM and incubated for 10 minutes at room temperature. mRNA was then added to Opti-MEM to the appropriate conditions at the following amounts: 12.5 ng of fluorescent co-transfection marker, 56.25 ng of protease, and 56.25 ng of engineered executioner. Diluted mRNA was then added to diluted MessengerMAX reagent and incubated for 5 minutes at room temperature before addition to Jurkat or THP-1 cells in RPMI media. […]

[1] = co-transfected with wildtype GSDME, TEVP and TEVP-activatable caspase-3

B1: silencer: leucine zipper-fused GSDMA C-terminal domain; SEQ ID NO: 43 (protein)
chain: MGSEQLEKKLQALEKKLAQLEWKNQALEKKLAQGGSGSSMHEDFKTLKEEVQRETQEVEKLSPVGRSSLLTSLSHLLGKKKELQDLEQKLEGALDKGQKVTLEALPKDVLLSKDAMDAILYFLGALTELTEEQLKILVKSLEKKILPVQLKLVESTLEQNFLQDKEGVFPLQPDLLSSLGEEELTLTEALVGLSGLEVQRSGPQYAWDPDTRHNLCALYAGLSLLHLLSRKSNALTYCALS
inhibition of pyroptosis induced by wildtype GSDMA N-terminal domain: did not inhibit pyroptosis
inhibition of pyroptosis induced by zipper-attached GSDMA N-terminal domain (GSDMA N-Z): markedly suppressed pyroptosis
inhibition of pyroptosis induced by zipper-attached GSDMA N-terminal domain (GSDMA N-Z) (listed as GSDMA Z-C): potently inhibited an engineered active executioner

B2: FIG. 1D, third module: GSDMA N-terminal domain fused to TEVP-removable degron; SEQ ID NO: 18 (protein)
chain: MGSPVFEDVTRALVRELNPRGDLTPLDSLIDFKHFRPFCLVLRKRKSTLFWGARYVRTDYTLLDLLEPGSSPSDLTDSGNFSFKNMLDVQVQGLVEVPKTVKVKGTAGLSQSSTLEVQTLSVAPSALENLKKERKLSADHSFLNEMRYHEKNLYVVMEAVEAKQEVTVEQTGNANAIFSLPSLALLGLQGSLNNNKAVTIPKGCVLAYRVRLLRVFLFNLWDIPYICNDSMQTFPKIRRVPCSAFISPTQMISEEPEEEKLIGEGGSGLENLYFQSGSGSISLIAALAVDYVIGMENAMPWNLPADLAWFKRNTLNKPVIMGRHTWESIGRPLPGRKNIILSSQPSTDDRVTWVKSVDEAIAACGDVPEIMVIGGGRVIEQFLPKAQKLYLTHIDAEVEGDTHFPDYEPDDWESVFSEFHDADAQNSHSYCFEILERR
pyroptosis, Sytox staining: removal of the degron by TEVP also induced pyroptosis

B3: FIG. 1D, fourth module: GSDMA N-terminal domain with internal TEVP cleavage site; SEQ ID NO: 19 (protein)
chain: MGSPVFEDVTRALVRELNPRGDLTPLDSLIDFKHFRPFCLVLRKRKSTLFWGARYVRTDYTLLDLLEPGSSPSDLTDSGNFSFKENLYFQSNMLDVQVQGLVEVPKTVKVKGTAGLSQSSTLEVQTLSVAPSALENLKKERKLSADHSFLNEMRYHEKNLYVVMEAVEAKQEVTVEQTGNANAIFSLPSLALLGLQGSLNNNKAVTIPKGCVLAYRVRLLRVFLFNLWDIPYICNDSMQTFPKIRRVPCSAFISPTQMISEEPEEEKLIGE
pyroptosis, Sytox staining: abolished its activity

B4: FIG. 1D, fifth module: GSDMA N-terminal domain fused to TEVP site-caged N-degron; SEQ ID NOs: 20, 40 (protein)
chain: MGSENLYFQRHKSGAWKLPVSLVKPVFEDVTRALVRELNPRGDLTPLDSLIDFKHFRPFCLVLRKRKSTLFWGARYVRTDYTLLDLLEPGSSPSDLTDSGNFSFKNMLDVQVQGLVEVPKTVKVKGTAGLSQSSTLEVQTLSVAPSALENLKKERKLSADHSFLNEMRYHEKNLYVVMEAVEAKQEVTVEQTGNANAIFSLPSLALLGLQGSLNNNKAVTIPKGCVLAYRVRLLRVFLFNLWDIPYICNDSMQTFPKIRRVPCSAFISPTQMISEEPEEEKLIGEMGSENLYFQRHKSGAWKLPVSLVKPVFEDVTRALVRELNPRGDLTPLDSLIDFKHFRPFCLVLRKRKSTLFWGARYVRTDYTLLDLLEPGSSPSDLTDSGNFSFKNMLDVQVQGLVEVPKTVKVKGTAGLSQSSTLEVQTLSVAPSALENLKKERKLSADHSFLNEMRYHEKNLYVVMEAVEAKQEVTVEQTGNANAIFSLPSLALLGLQGSLNNNKAVTIPKGCVLAYRVRLLRVFLFNLWDIPYICNDSMQTFPKIRRVPCSAFISPTQMISEEPEEEKLIGE
pyroptosis, Sytox staining: allowed protease-mediated suppression of pyroptosis

B5: wildtype GSDME: natural substrate for caspase-3; SEQ ID NO: 21 (protein)
chain: MGFAKATRNFLREVDADGDLIAVSNLNDSDKLQLLSLVTKKKRFWCWQRPKYQFLSLTLGDVLIEDQFPSPVVVESDFVKYEGKFANHVSGTLETALGKVKLNLGGSSRVESQSSFGTLRKQEVDLQQLIRDSAERTINLRNPVLQQVLEGRNEVLCVLTQKITTMQKCVISEHMQVEEKCGGIVGIQTKTVQVSATEDGNVTKDSNVVLEIPAATTIAYGVIELYVKLDGQFEFCLLRGKQGGFENKKRIDSVYLDPLVFREFAFIDMPDAAHGISSQDGPLSVLKQATLLLERNFHPFAELPEPQQTALSDIFQAVLFDDELLMVLEPVCDDLVSGLSPTVAVLGELKPRQQQDLVAFLQLVGCSLQGGCPGPEDAGSKQLFMTAYFLVSALAEMPDSAAALLGTCCKLQIIPTLCHLLRALSDDGVSDLEDPTLTPLKDTERFGIVQRLFASADISLERLKSSVKAVILKDSKVFPLLLCITLNGLCALGREHS
mode of cell death, Sytox and Annexin double staining (background of TEVP activating TEVP-activatable caspase-3): caused pyroptosis in response to TEVP-mediated caspase-3 activation
cell death by the protein alone (without caspase-3 activation): alone did not induce cell death

B6: tobacco vein mottling virus protease (protein)
chain: MGSSKALLKGVRDFNPISACVCLLENSSDGHSERLFGIGFGPYIIANQHLFRRNNGELTIKTMHGEFKVKNSTQLQMKPVEGRDIIVIKMAKDFPPFPQKLKFRQPTIKDRVCMVSTNFQQKSVSSLVSESSHIVHKEDTSFWQHWITTKDGQCGSPLVSIIDGNILGIHSLTHTTNGSNYFVEFPEKFVATYLDAADGWCKNWKFNADKISWGSFTLVEDAPEDDFMAKKTVAAIMDS
notes: viral input protease
activation of cognate engineered GSDMs containing the cleavage sites (tev, tvmv and hcv sites): orthogonally activated their cognate engineered GSDMs

B7: I217N: GSDME N-terminal domain mutant I217N; SEQ ID NO: 22 (protein)
chain: MGFAKATRNFLREVDADGDLIAVSNLNDSDKLQLLSLVTKKKRFWCWQRPKYQFLSLTLGDVLIEDQFPSPVVVESDFVKYEGKFANHVSGTLETALGKVKLNLGGSSRVESQSSFGTLRKQEVDLQQLIRDSAERTINLRNPVLQQVLEGRNEVLCVLTQKITTMQKCVISEHMQVEEKCGGIVGIQTKTVQVSATEDGNVTKDSNVVLEIPAATTNAYGVIELYVKLDGQFEFCLLRGKQGGFENKKRIDSVYLDPLVFREFAFIDMPD
inhibition of wildtype GSDME N-induced pyroptosis: capable of inhibiting the wildtype counterpart
pyroptotic activity of GSDME N-terminal domain mutant: defective in inducing pyroptosis
apoptosis, Annexin levels [1]: permitting caspase-3-induced apoptosis, as read out by high Annexin levels
pyroptosis, Sytox uptake [1]: suppressed pyroptosis, as evidenced by reduced Sytox uptake
pyroptosis, Sytox uptake (co-transfected with wildtype GSDME, TEVP and TEVP-activatable caspase-3, listed as GSDME inhibitor): pyroptosis could be attenuated to various degrees
inhibition of wildtype GSDME N-induced pyroptosis (listed as GSDME N(mut)): inhibited wildtype GSDME N-induced pyroptosis
